From US20250051460A1 (Boehringer Ingelheim, published 2025)
Where “and” joins values, the source holds several entries; their conditions need not be identical. Identical values can stand only once. Like-named read-outs stand apart in the source and are kept apart here.

Experiments:
Assay in all cases: cell-based or functional assay
human VEGF-A [1] = biological target: T1, human VEGF-A (human, UniProt P15692-4 27-191)
human VEGF-A [2] = biological target: T1, human VEGF-A; remark: listed apart in the source
human VEGF-A [3] = biological target: T1, human VEGF-A; remark: listed apart in the source
human VEGF-A [4] = biological target: T1, human VEGF-A; remark: listed apart in the source
human VEGF-A [5] = biological target: T1, human VEGF-A; remark: listed apart in the source
human VEGF-A [6] = biological target: T1, human VEGF-A; remark: listed apart in the source

T1 sequence (P15692 other isoform, or with tags, fused parts or gaps limits assumed): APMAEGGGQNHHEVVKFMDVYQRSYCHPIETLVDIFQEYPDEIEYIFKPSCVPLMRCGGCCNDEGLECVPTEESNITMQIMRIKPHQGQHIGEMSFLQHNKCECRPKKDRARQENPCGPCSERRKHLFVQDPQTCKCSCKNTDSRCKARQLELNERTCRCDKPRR

Row | Binder | concentration for full inhibition of VEGF-induced HRMEC proliferation (human VEGF-A [1]) | Bottom plateau (ERK1/2 phosphorylation, counts) (human VEGF-A [2]) | Bottom plateau (Src phosphorylation, counts) (human VEGF-A [2]) | IC50 (ERK1/2 phosphorylation) (human VEGF-A [2]) | IC50 (Src phosphorylation) (human VEGF-A [2]) | Bottom plateau (ERK1/2 phosphorylation, counts) (human VEGF-A [3]) | Bottom plateau (Src phosphorylation, counts) (human VEGF-A [3]) | IC50 (ERK1/2 phosphorylation) (human VEGF-A [3]) | IC50 (Src phosphorylation) (human VEGF-A [3]) | IC50 (ERK1/2 phosphorylation) (human VEGF-A [1]) | Bottom plateau (ERK1/2 phosphorylation, counts) (human VEGF-A [5]) | Bottom plateau (Src phosphorylation, counts) (human VEGF-A [5]) | IC50 (ERK1/2 phosphorylation) (human VEGF-A [5]) | IC50 (Src phosphorylation) (human VEGF-A [5]) | Bottom plateau (ERK1/2 phosphorylation, counts) (human VEGF-A [6]) | Bottom plateau (Src phosphorylation, counts) (human VEGF-A [6]) | IC50 (ERK1/2 phosphorylation) (human VEGF-A [6]) | IC50 (Src phosphorylation) (human VEGF-A [6]) | also measured
1 | TPP-14937 (bispecific antibody, human IgG1, kappa, L234A L235A) heavy: not shown light: DIQMTQSPSSLSASVGDRVTITCRTSENVYSNLAWYQQKPGKAPKLLIYAASNLQSGVPSRFSGSGSGTDYTFTISSLQPEDIATYYCQHFWGSPFTFGQGTKLEIKRTVAAPSVFIFPPSDEQLKSGTASVVCLLNNFYPREAKVQWKVDNALQSGNSQESVTEQDSKDSTYSLSSTLTLSKADYEKHKVYACEVTHQGLSSPVTKSFNRGEC | 4 nM | -927 counts | 4570 counts | 5.6 nM | 5.8 nM | -926 counts | 4570 counts | 5.58 nM | 5.83 nM | – | – | – | – | – | – | – | – | – | –
2 | TPP-11738 (bispecific antibody, human IgG1, kappa, L234A L235A) heavy: not shown light: DIQMTQSPSSLSASVGDRVTITCRTSENVYSNLAWYQQKPGKAPKLLIYAASNLQSGVPSRFSGSGSGTDYTFTISSLQPEDIATYYCQHFWGSPFTFGQGTKLEIKRTVAAPSVFIFPPSDEQLKSGTASVVCLLNNFYPREAKVQWKVDNALQSGNSQESVTEQDSKDSTYSLSSTLTLSKADYEKHKVYACEVTHQGLSSPVTKSFNRGEC | – | – | – | – | – | – | – | – | – | ~4 nM and ~10 nM | – | – | – | – | – | – | – | – | –
3 | TPP-14936 (bispecific antibody, human IgG1, kappa, L234A L235A) heavy: not shown light: DIQMTQSPSSLSASVGDRVTITCRTSENVYSNLAWYQQKPGKAPKLLIYAASNLQSGVPSRFSGSGSGTDYTFTISSLQPEDIATYYCQHFWGSPFTFGQGTKLEIKRTVAAPSVFIFPPSDEQLKSGTASVVCLLNNFYPREAKVQWKVDNALQSGNSQESVTEQDSKDSTYSLSSTLTLSKADYEKHKVYACEVTHQGLSSPVTKSFNRGEC | 1 nM | -341 counts | 4650 counts | 3.5 nM | 3.4 nM | -340 counts | 4650 counts | 3.49 nM | 3.4 nM | – | – | – | – | – | – | – | – | – | –
4 | TPP-11736 (bispecific antibody, human IgG1, kappa, L234A L235A) heavy: not shown light: DIQMTQSPSSLSASVGDRVTITCRTSENVYSNLAWYQQKPGKAPKLLIYAASNLQSGVPSRFSGSGSGTDYTFTISSLQPEDIATYYCQHFWGSPFTFGQGTKLEIKRTVAAPSVFIFPPSDEQLKSGTASVVCLLNNFYPREAKVQWKVDNALQSGNSQESVTEQDSKDSTYSLSSTLTLSKADYEKHKVYACEVTHQGLSSPVTKSFNRGEC | – | 3690 counts | 6300 counts | 5.6 nM | 4 nM | 3690 counts | 6300 counts | 5.59 nM | 3.97 nM | ~4 nM and ~10 nM | 3690 counts | 6300 counts | 5.59 nM | 3.97 nM | 3690 counts | 6300 counts | 5.59 nM | 3.97 nM | IC50 (p38 MAPK phosphorylation) (human VEGF-A [1]): ~7.4 nM; IC50 (ERK1/2 phosphorylation) (human VEGF-A [4]): 9.1 nM; IC50 (p38 MAPK phosphorylation) (human VEGF-A [4]): 7.7 nM
5 | TPP-14938 (bispecific antibody, human IgG1, kappa, L234A L235A) heavy: not shown light: DIQMTQSPSSLSASVGDRVTITCRASQVIRRSLAWYQQKPGKAPKLLIYAASNLASGVPSRFSGSGSGTDFTLTISSLQPEDFATYYCQQSNTSPLTFGQGTKVEIKRTVAAPSVFIFPPSDEQLKSGTASVVCLLNNFYPREAKVQWKVDNALQSGNSQESVTEQDSKDSTYSLSSTLTLSKADYEKHKVYACEVTHQGLSSPVTKSFNRGEC | – | – | – | – | – | – | – | – | – | – | 1330 counts | 5480 counts | 2.71 nM | 1.8 nM | 1330 counts | 5480 counts | 2.71 nM | 1.8 nM | –
6 | TPP-14939 (bispecific antibody, human IgG1, kappa, L234A L235A) heavy: not shown light: DIQMTQSPSSLSASVGDRVTITCRASQVIRRSLAWYQQKPGKAPKLLIYAASNLASGVPSRFSGSGSGTDFTLTISSLQPEDFATYYCQQSNTSPLTFGQGTKVEIKRTVAAPSVFIFPPSDEQLKSGTASVVCLLNNFYPREAKVQWKVDNALQSGNSQESVTEQDSKDSTYSLSSTLTLSKADYEKHKVYACEVTHQGLSSPVTKSFNRGEC | – | – | – | – | – | – | – | – | – | – | 1140 counts | 5540 counts | 2.51 nM | 1.16 nM | 1140 counts | 5540 counts | 2.51 nM | 1.16 nM | –
